The supplement of paper PMC12042874
± gives the uncertainty stated by the source.

assay: amyloid nucleation score (Sup35N fusion, yeast selection) (log enrichment); library NNK1; higher = more nucleation; inactive = no reads after selection
In short: (§1)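 Random libraries were run with three technical output replicates. In each, psi-negative yeast expressing Sup35N fused to peptides of 20 random codons were induced 24 hours with 100 μM copper sulfate and grown 7 days at 30°C on medium lacking adenine and uracil, and input and output plasmid inserts were Illumina-sequenced. The nucleation score is the DiMSum log enrichment of output over input reads, centred on the mode score of non-aggregating sequences, and sequences under 100 input reads were excluded.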

Substance	amyloid nucleation score
AAAFYWLN	-1.2 ± 1.3
AAGRMIRIMVTGVRLDKDKD	-0.257 ± 1.7
AAKRM	1.11 ± 0.52
AALSC	0.844 ± 0.46
AANSPELVGFSGGPKGCSRG	-0.137 ± 0.71
AARELKIVTRVMHFDADREA	0.103 ± 0.43
ACDVNSCVHCMSTVKFFPRP	4.2 ± 0.11
ACETWVVAIDMVSRSPCRCC	0.113 ± 0.97
ACHRTWKWVLRLRLLMRNNL	-0.712 ± 0.8
ACLATNCVSFANFASCCWGW	7.154 ± 0.059
ACMRCFGNICSLWSVKGN	7.417 ± 0.052
ACYRATNMSCRRGHKLAGGF	inactive
ADEVMKRRQLLINIVEYFMK	0.2 ± 0.38
ADKTGGPVTNITFLAWPWWG	3.95 ± 0.13
ADSHYSDVGGYWMNSSLCK	1.31 ± 0.8
ADTCPFCDHWTQSSNRWQEL	0.692 ± 0.41
ADVEVC	-0.005 ± 0.56
AERVCTFIL	-1.25 ± 1.1
AESWCAGSKIIHSIGWSKDR	0.589 ± 0.54
AFGMSLGG	0.225 ± 0.65
AFRRNSPVSWSRR	0.37 ± 0.35
AFSSVEFRLDVNVFPEWVVL	3.9 ± 0.12

Substance	amyloid nucleation score
AGAVLLNVMLCARLQRSEYY	2.17 ± 0.14
AGKHLGNNIRYILVYGESFR	-1.09 ± 0.85
AGMDVDSLYNRYGYGLEVG	-0.512 ± 0.81
AGMTFRFLHEVSSSQSN	3.06 ± 0.13
AGRSWSCMLVTVWSRTRVPL	0.351 ± 0.6
AGRTILKIILQVLALLAPYK	-0.309 ± 1.4
AGSLWFIWGLLSALN	-0.893 ± 0.92
AGVIDT	0.171 ± 0.79
AGYVWAKSSKDVKFYVLDM	2.85 ± 0.17
AHFIFCKTFTLCLLLFCKLT	0.057 ± 0.83
AHGMYAEGVTWSALVSSRCE	2.56 ± 0.11
AHSCSLV	0.61 ± 0.7
AHSGMRLL	0.569 ± 0.75
AICKRRQLRVLSQALRLSLL	1.14 ± 0.4
AIDIYGYLRFPCWLRVLFT	-1.06 ± 0.45
AIFVCNH	0.229 ± 0.5
AILFLFFN	2.66 ± 0.14
AILRSAM	0.284 ± 0.46
AILVHCSVLTVA	0.584 ± 0.66
AIRMLSISCNFMVVIL	0.837 ± 0.93
AISVWMSMNGPITPDR	0.907 ± 0.59
AKVPVKGQRLRTGLPKSTHT	-1.88 ± 1.4

Substance	amyloid nucleation score
ALCLKGSMNVEFMIRTSGFN	0.705 ± 0.51
ALLGFRSCMQASFFFFRWFI	-0.801 ± 0.89
ALPREWKCMSLLFENGSGNS	inactive
ALRFFWDPFIDG	0.388 ± 0.81
ALRGMWNKVRSGGWCYRCTW	-0.05 ± 1.4
ALRKVYCSFIHNIWACSWAI	inactive
AMCLV	-0.373 ± 0.88
AMHNSSDGCRFDTYSVCVYW	2.68 ± 0.21
AMKVFYDMWKTACY	-0.507 ± 0.7
AMLKDRNMLADYFHGVILGA	inactive
AMMPLVLNQVVFDVAALTNR	7.68 ± 0.054
AMNGVLVIGGV	-0.668 ± 1.7
AMRLMDILCLIVCPHEYMWP	1.54 ± 0.17
AMVGLMMELAHRKLNR	0.523 ± 0.45
AMYVDQVLHQPRPLMSPRMQ	0.515 ± 0.51
ANGMEGL	1.13 ± 0.81
ANIHYL	2.63 ± 0.12
ANMHRVKAYCHIFGLSHETE	-0.775 ± 0.73
ANSVRWTCMLVIIFQYRPTS	2.5 ± 0.15
APFHEGNIFRAVTFKTYPSR	-0.422 ± 0.72
AQSSVKRWGGLCRNVMKDGW	0.276 ± 0.32
AQWVLMWYVRHVR	1.49 ± 0.18

Substance	amyloid nucleation score
ARCCWRG	-0.849 ± 1.1
ARFCRGGRIVSLMRVLTQTR	-0.931 ± 1.3
ARHSYN	inactive
ARLENVTHFRFLQTNLGYIE	0.082 ± 0.67
ARMFELRPLNRTHYSRAKRT	0.124 ± 0.5
ARMVVCHPAGFGGAWPSRWC	-0.105 ± 0.93
ARTDWFLNSRSSDYAIGFPY	-0.157 ± 0.79
ARTGPTSASVGGLQPVCPGD	-0.019 ± 0.55
ARWCEGRYSFILNKQQKLAK	0.662 ± 0.49
ARYPRGDGVGDMSSRLIVVY	1.26 ± 0.2
ASAGPRWIWFGLGLQRCDAY	-0.141 ± 0.87
ASFEKFNNVTLGCSTDSE	0.666 ± 0.48
ASFLRNVFWVIREYTLCEYV	0.647 ± 0.19
ASGFESCDTEVVGFRGVCYA	1.42 ± 0.51
ASNYGQWSCHPGRSLFVQFF	4.56 ± 0.11
ASQRSQNCCIVESIDEVLFS	0.85 ± 0.41
ASSGPAIYFNGRQRTFYYSD	1.05 ± 0.29
ASSGSVGVLNLATHTTVKWQ	4.04 ± 0.14
ASVVQVTGRGSVGMVFPCCS	-0.558 ± 0.56
ASWTHVIFTYPLGKA	0.035 ± 1
ATAHCWLRQESGEFGDLWIP	0.276 ± 0.19
ATAVYMSVLMVPDLRMKAEG	1.5 ± 0.7

Substance	amyloid nucleation score
ATCNNI	-0.431 ± 1.4
ATGARLKLCQELRSTLGMLT	-0.608 ± 0.45
ATHPDSSMYNRTTSSNFMWF	-0.573 ± 0.75
ATREQDFWWFDER	-1.48 ± 1.2
ATSLSCKSKFPMTDVAHLHH	0.406 ± 0.2
ATTLGCQWDWKWSAFGAWLQ	-1.08 ± 1.1
ATVKVPNNSIRNDFFSNDRD	-1.13 ± 1.2
AVASMWPRGLALSRLVSLNA	0.05 ± 0.47
AVCQRNLFGIVRICRSKTR	4.64 ± 0.055
AVCYHGFRMATAASEVCGAS	0.327 ± 0.38
AVGKYLWASVGIAFDRQSIM	-0.837 ± 2.4
AVKYRGNVMFKIRHIMLKCM	0.023 ± 0.42
AVLNQYRELKQAGSFYVSTM	0.618 ± 0.52
AVLRRYQFVYDLSYLYEDFL	-0.836 ± 0.48
AVLSPGWWESLYPRRVVHSC	-0.354 ± 0.54
AVNYIADFGTVDRCCITFPL	0.645 ± 0.4
AVPCSC	0.189 ± 0.3
AVQFCCWDMRTVIAS	5.76 ± 0.066
AVRGINCCKRQSWKCNLCM	0.915 ± 0.56
AVRWLHIGWSKETGRNCDCR	0.671 ± 0.64
AVTCSPPGPMQGLTFLFMAL	-1.11 ± 1

assay: amyloid nucleation score (Sup35N fusion, yeast selection) (log enrichment); library NNK2; higher = more nucleation; inactive = no reads after selection
In short: as §1

Substance	amyloid nucleation score
YPVTYQLCILICTGYADKWR	-1.26 ± 0.64
YQIAWI	-0.719 ± 0.46
YQLIGFTKVIRFHSVELIEP	inactive
YRAGLGALEGSVLHAGKW	inactive
YRCVDYKGIEYLLYREMLTT	3.93 ± 0.046
YRDVQNN	inactive
YRGINGTTGFQLWAPA	inactive
YRGLTSLYLFNQV	-0.08 ± 0.23
YRKHRLLH	-0.893 ± 0.76
YRNVPRRMYRCVGISWS	1.13 ± 0.11
YRPQATGLGSRGRR	0.81 ± 0.43
YRYAASVPKCNTGSRDVAQT	0.942 ± 0.35
YSCQFFCSVLLCLYVSHITN	inactive
YSDKHM	-1.27 ± 0.64
YSGDRDTVLYHCTRVGAESV	0.109 ± 0.63
YSGKCMEDVRGQMVGGLELV	0.405 ± 0.22
YSHGEVCCWSCVMWVKHFMR	1.47 ± 0.33
YSKAAIFMESHFLASGNHKA	4.67 ± 0.1
YSKNWYWCTDYARANTLYHG	-1.14 ± 1.1
YSLLLTIKPTTSWRCVSDGH	2.27 ± 0.23
YSLNWVQWEWELVCKWQGSL	0.143 ± 0.35

Substance	amyloid nucleation score
YSNANGRTRVWGPRERKKDQ	-0.004 ± 0.65
YSSYYHNFFRW	-0.277 ± 0.28
YSVLFL	-0.722 ± 0.54
YSWKFFCRWNEQD	1.04 ± 0.59
YSYTTVFNIASNTTNELATC	-0.375 ± 0.2
YTCRYRFTLNQTSSRRFSFW	1.35 ± 0.13
YTGFWFIFTKGHTE	inactive
YTPHYLQCRLFCIPLRLNRS	-1.09 ± 0.49
YTVLWRCTFTKARVFGCVSL	0.414 ± 0.51
YVCVYTDF	-1.38 ± 0.55
YVDLKVACILYPYFSGTRQH	4.96 ± 0.078
YVDWAG	-1.56 ± 0.62
YVGSFVGSGIVLLNNSAVRH	3.4 ± 0.14
YVIQMYLSEATGCYVFTYFF	0.368 ± 0.33
YVKVRWCGTSPCNEFLRSSY	0.429 ± 0.66
YVLKVVIRRLRRSCVSCTWH	-0.109 ± 0.25
YVSECVANA	inactive
YVSWCCGRFISYPVC	0.321 ± 0.19
YVTPKDDSDAVWGLTLMEMS	0.292 ± 0.39
YVVGDMTFWS	-0.297 ± 1.1
YVVYMVFGR	6.323 ± 0.055

Substance	amyloid nucleation score
YVYTLGI	-0.337 ± 1.1
YWEDNWAPNIQDLWQRRRCG	0.743 ± 0.81
YWTPISFVY	-1.09 ± 0.64
YWTPYCIVIH	-0.965 ± 0.78
YYCFHLKEYCRWRSANPHFK	-0.073 ± 1
YYEIIWYTFQEKLSGCSSCS	-2.02 ± 0.75
YYGALWRYAGMSG	-0.472 ± 0.3
YYGRSSLRNRMDVSDVQYPG	-0.67 ± 1.1
YYSLY	-0.904 ± 0.36
YYSMGSTCGILDQDSLNVDQ	-1.34 ± 0.39
YYSPYN	inactive
YYSSLTYCMLQWYSLFWWGH	0.658 ± 0.51
YYSWFSVYSIIILHNQQFRL	inactive
YYVERCNGTMVRNFLGATLV	-0.968 ± 0.5
YYVLWSGVGIVMDSAYDTIC	-0.017 ± 1
YYVTNSGSWLDACHGLYKTG	inactive
YYVVLGSSM	-0.018 ± 0.42
YYYIRCTAVK	-0.495 ± 0.65
YYYTLLSLHHMFCVTYELSG	5.443 ± 0.035
